Measured values published in article PMC3269530 (Journal of Molecular Biology, 2011).

Key:
ArfA-c [1] = assay type: binding, M. tuberculosis
[2] = system: ArfA (S302 amide proton, β3-α4 loop); experiment: Saturation transfer difference NMR; assay type: binding, M. tuberculosis
ArfA-c [3] = molecular target: ArfA-c (Mycobacterium tuberculosis, UniProt P9WIU5); experiment: biochemical; assay type: binding
[4] = assay type: binding, Mycobacterium tuberculosis, strain H37Rv; details: qualitative

uridine-5'-diphosphate–MurNAc–L-Ala–D-γ-Glu–m-DAP–D-Ala– D-Ala [UMDP]
Kd (ArfA-c [1]): ~1000 µM
proximity of S302 amide proton to MurNAc methyl protons [2]: in some proximity

CC(=O)N[C@H]1[C@@H](OP(=O)(O)OP(=O)(O)OC[C@H]2O[C@@H](n3ccc(=O)[nH]c3=O)[C@H](O)[C@@H]2O)O[C@H](CO)[C@@H](O)[C@@H]1O[C@H](C)C(=O)N[C@@H](C)C(=O)N[C@H](CCC(=O)N[C@@H](CCC[C@@H](N)C(=O)O)C(=O)N[C@H](C)C(=O)N[C@H](C)C(=O)O)C(=O)O [UMDP, uridine-5'-diphosphate–MurNAc–L-Ala–D-γ-Glu–m-DAP–D-Ala–D-Ala (Park's nucleotide)]
Kd (ArfA-c [3]): ~1000 µM

CC(=O)N[C@H]1C(OP(=O)(O)OP(=O)(O)OC[C@H]2O[C@@H](n3ccc(=O)[nH]c3=O)[C@H](O)[C@@H]2O)O[C@H](CO)[C@@H](O)[C@@H]1O[C@H](C)C(=O)N[C@@H](C)C(=O)N[C@H](CCC(=O)N[C@@H](CCCCN)C(=O)N[C@H](C)C(=O)N[C@H](C)C(=O)O)C(=O)O (stereo partly drawn) [UMKP, uridine-5'-diphosphate–MurNAc–L-Ala–D-γ-Glu–L-Lys–D-Ala–D-Ala]
effect on the NMR spectrum of ArfA-c (ArfA-c [1]): no effect

B1: ArfA-c: C domain of M. tuberculosis ArfA (Rv0899), residues 196–326 (protein)
chain: GQAPPGPPASGPCADLQSAINAVTGGPIAFGNDGASLIPADYEILNRVADKLKACPDARVTINGYTDNTGSEGINIPLSAQRAKIVADYLVARGVAGDHIATVGLGSVNPIASNATPEGRAKNRRVEIVVN
temperature of thermal unfolding, pH 4 (pH4, 15 µM protein, Sypro orange, 20-95°C, 0.03°C per second, Fig. 2d): 65.0 °C
temperature of thermal unfolding, pH 7 (pH7, 15 µM protein, Sypro orange, 20-95°C, 0.03°C per second, Fig. 2d): 63.2 °C
increase in temperature of thermal unfolding on lowering pH from 7 to 4 (pH 7 to 4, Sypro orange DSF, Fig. 2d): 2 °C
affinity for polymeric M. tuberculosis peptidoglycan [4]: strong (enough to precipitate the protein)

B2: ArfA-bc: joint B and C domains of ArfA, residues 73–326 (protein)
chain: GASALSLSLLSISRSGNTVTLIGDFPDEAAKAALMTALNGLLAPGVNVIDQIHVDPVVRSLDFSSAEPVFTASVPIPDFGLKVERDTVTLTGTAPSSEHKDAVKRAATSTWPDMKIVNNIEVTGQAPPGPPASGPCADLQSAINAVTGGPIAFGNDGASLIPADYEILNRVADKLKACPDARVTINGYTDNTGSEGINIPLSAQRAKIVADYLVARGVAGDHIATVGLGSVNPIASNATPEGRAKNRRVEIVVN
stabilization provided by the disulfide bond (GSSG vs DTT, Sypro orange DSF, Fig. 2a): about 1 °C
